B1: Anosmin-1 (Homo sapiens), P23352 (parent)
chain: MVPGVPGAVLTLCLWLAASSGCLAAGPGAAAARRLDESLSAGSVQRARCASRCLSLQITRISAFFQHFQNNGSLVWCQNHKQCSKCLEPCKESGDLRKHQCQSFCEPLFPKKSYECLTSCEFLKYILLVKQGDCPAPEKASGFAAACVESCEVDNECSGVKKCCSNGCGHTCQVPKTLYKGVPLKPRKELRFTELQSGQLEVKWSSKFNISIEPVIYVVQRRWNYGIHPSEDDATHWQTVAQTTDERVQLTDIRPSRWYQFRVAAVNVHGTRGFTAPSKHFRSSKDPSAPPAPANLRLANSTVNSDGSVTVTIVWDLPEEPDIPVHHYKVFWSWMVSSKSLVPTKKKRRKTTDGFQNSVILEKLQPDCDYVVELQAITYWGQTRLKSAKVSLHFTSTHATNNKEQLVKTRKGGIQTQLPFQRRRPTRPLEVGAPFYQDGQLQVKVYWKKTEDPTVNRYHVRWFPEACAHNRTTGSEASSGMTHENYIILQDLSFSCKYKVTVQPIRPKSHSKAEAVFFTTPPCSALKGKSHKPVGCLGEAGHVLSKVLAKPENLSASFIVQDVNITGHFSWKMAKANLYQPMTGFQVTWAEVTTESRQNSLPNSIISQSQILPSDHYVLTVPNLRPSTLYRLEVQVLTPGGEGPATIKTFRTPELPPSSAHRSHLKHRHPHHYKPSPERY

Variants of: B1
Conditions: with fgfr1_human FGFR1, P11362
fgfr1_human FGFR1, P11362, sequence (P11362 whole entry, looked up): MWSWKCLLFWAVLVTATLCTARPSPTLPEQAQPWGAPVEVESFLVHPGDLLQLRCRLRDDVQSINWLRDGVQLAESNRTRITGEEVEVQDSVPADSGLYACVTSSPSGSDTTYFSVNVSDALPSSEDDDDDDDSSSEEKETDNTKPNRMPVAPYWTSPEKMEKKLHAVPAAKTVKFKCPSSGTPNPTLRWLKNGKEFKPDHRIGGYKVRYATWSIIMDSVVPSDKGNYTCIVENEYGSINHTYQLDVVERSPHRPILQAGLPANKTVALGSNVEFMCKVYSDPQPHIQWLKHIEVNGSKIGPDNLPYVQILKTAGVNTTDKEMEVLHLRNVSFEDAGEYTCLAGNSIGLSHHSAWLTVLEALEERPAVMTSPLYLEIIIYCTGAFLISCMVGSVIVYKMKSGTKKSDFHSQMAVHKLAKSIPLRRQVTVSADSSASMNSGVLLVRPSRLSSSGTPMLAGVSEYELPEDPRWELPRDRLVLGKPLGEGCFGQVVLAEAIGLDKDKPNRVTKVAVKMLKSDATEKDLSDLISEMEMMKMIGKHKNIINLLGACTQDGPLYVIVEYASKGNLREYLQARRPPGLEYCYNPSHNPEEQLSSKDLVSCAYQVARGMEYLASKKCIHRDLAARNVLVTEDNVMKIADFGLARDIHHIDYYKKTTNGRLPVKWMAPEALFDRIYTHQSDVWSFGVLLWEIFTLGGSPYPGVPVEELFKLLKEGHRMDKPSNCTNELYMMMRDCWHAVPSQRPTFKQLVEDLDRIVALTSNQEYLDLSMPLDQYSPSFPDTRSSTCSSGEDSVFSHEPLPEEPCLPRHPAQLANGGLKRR

| effect of a mutation on the interaction | Variant |
| --- | --- |
| disrupting interaction | N267K |

Reference: IntAct's records for PubMed 19696444
